Measured values as given in patent US20160002326A1 (AbbVie / Abbott, published 2016).

Tests used:
human TNF-α [1] = target: T1, human TNF-α (human, UniProt P01375 77-233); assay: assay not stated; rounded figure in the dose-selection text, assay not stated
T1 construct: also called hTNF-α; hTNF

Fcγ RIIa, variant 131H = target: T2, Fcγ RIIa, variant 131H (UniProt P12318 36-218, limits assumed); assay: Biacore
T2 construct: also called FcγRIIa 131H
T2 sequence (looked up): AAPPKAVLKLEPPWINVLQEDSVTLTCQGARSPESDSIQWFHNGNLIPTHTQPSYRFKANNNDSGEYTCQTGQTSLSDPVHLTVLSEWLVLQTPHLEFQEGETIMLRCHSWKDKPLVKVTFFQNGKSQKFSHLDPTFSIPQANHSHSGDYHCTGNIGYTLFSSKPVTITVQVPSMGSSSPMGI

Fcγ RIIIa, variant 158F = target: T3, Fcγ RIIIa, variant 158F (UniProt P08637 17-208); assay: Biacore
T3 construct: also called FcγRIIIa 158F
T3 sequence (P08637 17-208 limits assumed, change not shown): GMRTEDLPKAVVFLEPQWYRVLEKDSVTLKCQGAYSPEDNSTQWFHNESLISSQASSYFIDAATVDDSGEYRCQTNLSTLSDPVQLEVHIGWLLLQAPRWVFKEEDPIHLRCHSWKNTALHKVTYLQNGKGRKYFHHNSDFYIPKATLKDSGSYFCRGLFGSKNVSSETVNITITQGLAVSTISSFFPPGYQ

Fcγ RIIa, variant 131R = target: T4, Fcγ RIIa, variant 131R (UniProt P12318 36-218, limits assumed); assay: Biacore
T4 construct: also called FcγRIIa 131R
T4 sequence (looked up): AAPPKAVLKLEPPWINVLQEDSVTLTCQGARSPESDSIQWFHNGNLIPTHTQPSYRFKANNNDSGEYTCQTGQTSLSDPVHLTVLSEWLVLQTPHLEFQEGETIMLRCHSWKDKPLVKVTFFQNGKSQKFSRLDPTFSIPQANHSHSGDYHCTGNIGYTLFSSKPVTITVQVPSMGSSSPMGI

Fcγ RIIb = target: T5, Fcγ RIIb (UniProt P31994 46-217, limits assumed); assay: Biacore
T5 sequence (looked up): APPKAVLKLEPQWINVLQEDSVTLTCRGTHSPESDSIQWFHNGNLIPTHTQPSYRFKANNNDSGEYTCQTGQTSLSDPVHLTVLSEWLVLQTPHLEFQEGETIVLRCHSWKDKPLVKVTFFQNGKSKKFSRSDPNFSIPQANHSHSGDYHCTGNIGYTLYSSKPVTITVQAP

Fcγ RI = target: T6, Fcγ RI (UniProt P12314 16-288, limits assumed); assay: Biacore
T6 construct: also called FcγR1
T6 sequence (P12314 16-288 limits assumed): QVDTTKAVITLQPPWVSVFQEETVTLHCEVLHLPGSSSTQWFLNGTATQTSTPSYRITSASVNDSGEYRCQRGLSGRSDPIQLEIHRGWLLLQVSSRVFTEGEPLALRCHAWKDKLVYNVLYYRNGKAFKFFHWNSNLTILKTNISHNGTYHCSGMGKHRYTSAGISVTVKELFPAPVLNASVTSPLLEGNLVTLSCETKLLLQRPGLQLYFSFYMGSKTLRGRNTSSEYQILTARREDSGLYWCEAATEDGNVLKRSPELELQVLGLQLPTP

CD40 ligand = target: T7, CD40 ligand (UniProt P29965 113-261, limits assumed); assay: direct ELISA
T7 sequence (looked up): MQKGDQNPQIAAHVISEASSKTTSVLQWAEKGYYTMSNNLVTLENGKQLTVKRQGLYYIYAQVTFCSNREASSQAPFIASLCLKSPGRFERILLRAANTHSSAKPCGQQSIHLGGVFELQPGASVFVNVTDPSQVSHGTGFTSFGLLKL

CD30 ligand = target: T8, CD30 ligand (UniProt P32971 63-234); assay: direct ELISA
T8 sequence (looked up): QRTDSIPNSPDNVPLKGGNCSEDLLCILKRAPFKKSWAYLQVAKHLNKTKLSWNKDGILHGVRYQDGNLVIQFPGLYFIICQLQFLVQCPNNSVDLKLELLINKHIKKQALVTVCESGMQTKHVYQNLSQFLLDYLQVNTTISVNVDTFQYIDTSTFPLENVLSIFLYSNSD

human TNF-α [2] = target: T1, human TNF-α; assay: Biacore SPR, recombinant antigen, mean of 3 experiments
[3] = target: T9, human IL-17A/F heterodimer (human, UniProt Q16552 24-155; Q96PD4 31-163); assay: as above
T9 construct: also called hIL-17A/F
T9 sequence 1: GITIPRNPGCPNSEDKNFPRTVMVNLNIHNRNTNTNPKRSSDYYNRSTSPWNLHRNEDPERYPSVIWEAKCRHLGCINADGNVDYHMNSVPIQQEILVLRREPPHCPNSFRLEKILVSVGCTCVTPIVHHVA
T9 sequence 2: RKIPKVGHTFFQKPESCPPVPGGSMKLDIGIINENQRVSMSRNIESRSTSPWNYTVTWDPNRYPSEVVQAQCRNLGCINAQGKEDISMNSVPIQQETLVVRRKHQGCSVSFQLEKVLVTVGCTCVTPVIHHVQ

human IL-17A/A homodimer [4] = target: T10, human IL-17A/A homodimer (human, UniProt Q16552 24-155); assay: as above
T10 construct: also called hIL-17A/A
T10 sequence: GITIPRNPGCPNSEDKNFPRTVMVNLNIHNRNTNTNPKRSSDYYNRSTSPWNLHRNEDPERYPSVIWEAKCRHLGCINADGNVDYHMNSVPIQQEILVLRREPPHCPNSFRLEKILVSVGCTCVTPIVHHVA

human TNF-α [5] = target: T1, human TNF-α; assay: Biacore SPR, 3 experiments; same value as Table 7; unit not printed in Table 10
human IL-17A/A homodimer [6] = target: T10, human IL-17A/A homodimer; assay: as above
mouse TNF = target: T11, mouse TNF (mouse, UniProt P06804 80-235); assay: Biacore SPR
T11 construct: also called murine TNF; rodent TNF (mouse)
T11 sequence (looked up): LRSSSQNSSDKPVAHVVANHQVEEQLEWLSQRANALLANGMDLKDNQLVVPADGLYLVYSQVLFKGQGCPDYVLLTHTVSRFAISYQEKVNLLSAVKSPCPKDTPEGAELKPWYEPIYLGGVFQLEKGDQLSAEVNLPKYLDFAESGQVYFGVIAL

rat TNF = target: T12, rat TNF (rat, UniProt P16599 80-235); assay: Biacore SPR
T12 construct: also called rodent TNF (rat); rat rTNF
T12 sequence (looked up): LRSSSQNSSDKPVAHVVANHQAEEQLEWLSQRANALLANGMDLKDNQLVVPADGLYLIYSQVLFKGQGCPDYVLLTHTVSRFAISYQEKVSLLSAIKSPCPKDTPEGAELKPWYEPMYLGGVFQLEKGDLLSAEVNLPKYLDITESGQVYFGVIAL

rabbit TNF = target: T13, rabbit TNF (rabbit, UniProt P04924 80-235, limits assumed); assay: Biacore SPR
T13 construct: also called rabbit rTNF
T13 sequence (looked up): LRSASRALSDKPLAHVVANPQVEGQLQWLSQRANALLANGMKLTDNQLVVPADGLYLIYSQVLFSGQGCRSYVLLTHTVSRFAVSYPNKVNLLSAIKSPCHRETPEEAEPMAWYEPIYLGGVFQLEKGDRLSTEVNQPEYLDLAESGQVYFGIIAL

human TNF-α [7] = target: T1, human TNF-α; assay: Biacore SPR, recombinant antigen, mean of 3 experiments; exponent as printed

T1 sequence (P01375 77-233 limits assumed): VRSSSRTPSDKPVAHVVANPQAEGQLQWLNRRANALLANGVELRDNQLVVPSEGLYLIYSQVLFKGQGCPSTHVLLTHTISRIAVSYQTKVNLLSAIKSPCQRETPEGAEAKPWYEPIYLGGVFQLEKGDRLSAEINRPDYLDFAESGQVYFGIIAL

B1: ABBV-257 anti-human TNF and IL-17 DVD-Ig binding protein (bispecific antibody, human IgG1, kappa, L234A L235A)
heavy: EVQLVQSGAEVKKPGASVKVSCKASGYTFANYGIIWVRQAPGQGLEWMGWINTYTGKPTYAQKFQGRVTMTTDTSTSTAYMELSSLRSEDTAVYYCARKLFTTMDVTDNAMDYWGQGTTVTVSSGGGGSGGGGSEVQLVQSGAEVKKPGSSVKVSCKASGYTFTDYEIHWVRQAPGQGLEWMGVNDPESGGTFYNQKFDGRVTLTADESTSTAYMELSSLRSEDTAVYYCTRYSKWDSFDGMDYWGQGTTVTVSSASTKGPSVFPLAPSSKSTSGGTAALGCLVKDYFPEPVTVSWNSGALTSGVHTFPAVLQSSGLYSLSSVVTVPSSSLGTQTYICNVNHKPSNTKVDKKVEPKSCDKTHTCPPCPAPEAAGGPSVFLFPPKPKDQLMISRTPEVTCVVVDVSHEDPEVKFNWYVDGVEVHNAKTKPREEQYNSTYRVVSVLTVLHQDWLNGKEYKCKVSNKALPAPIEKTISKAKGQPREPQVYTLPPSREEMTKNQVSLTCLVKGFYPSDIAVEWESNGQPENNYKTTPPVLDSDGSFFLYSKLTVDKSRWQQGNVFSCSVLHEALHNHYTQKSLSLSPGK
light: DIQMTQSPSSLSASVGDRVTITCRASQDISQYLNWYQQKPGKAPKLLIYYTSRLQSGVPSRFSGSGSGTDFTLTISSLQPEDFATYFCQQGNTWPPTFGQGTKLEIKRGGSGGGGSGDIQMTQSPSSLSASVGDRVTITCRASSGIISYIDWFQQKPGKAPKRLIYATFDLASGVPSRFSGSGSGTDYTLTISSLQPEDFATYYCRQVGSYPETFGQGTKLEIKRTVAAPSVFIFPPSDEQLKSGTASVVCLLNNFYPREAKVQWKVDNALQSGNSQESVTEQDSKDSTYSLSSTLTLSKADYEKHKVYACEVTHQGLSSPVTKSFNRGEC
modifications: N-linked glycans on the heavy chain at the asparagine commonly modified on IgG1 antibodies (fucosylated biantennary oligosaccharides with 0, 1 or 2 galactose residues)
notes: It says the constant region carries L234A, L235A and also T250Q and M428L; also called Anti-IL-17/TNF DVD-Ig Protein
**Q.** How did the Kd (human TNF-α [1]) turn out when B1 was run?
**A.** 5 pM

**Q.** Does B1 bind (Fcγ RIIa, variant 131H)?
**A.** no binding

**Q.** Does B1 bind (Fcγ RIIIa, variant 158F)?
**A.** no binding

**Q.** Does B1 bind (Fcγ RIIa, variant 131R)?
**A.** no binding

**Q.** Does B1 bind (Fcγ RIIb)?
**A.** no binding

**Q.** Does B1 bind (Fcγ RI)?
**A.** no binding

**Q.** Does B1 bind (CD40 ligand)?
**A.** no binding

**Q.** Does B1 bind (CD30 ligand)?
**A.** no binding

**Q.** And the Kd (human TNF-α [2])?
**A.** 4.9 pM

**Q.** What about the kon (human TNF-α [2]) of the same binder?
**A.** 3.3e+06 M⁻¹ s⁻¹

**Q.** And the Kd [3]?
**A.** 14 pM

**Q.** What about the koff [3] of the same binder?
**A.** 4.8e-06 s⁻¹

**Q.** And the kon [3]?
**A.** 340000 M⁻¹ s⁻¹

**Q.** And the Kd (human IL-17A/A homodimer [4])?
**A.** 3 pM

**Q.** And the koff (human IL-17A/A homodimer [4])?
**A.** 3e-06 s⁻¹

**Q.** And the kon (human IL-17A/A homodimer [4])?
**A.** 1.1e+06 M⁻¹ s⁻¹

**Q.** What about the Kd (human TNF-α [5]) of the same binder?
**A.** 4.9 pM

**Q.** And the Kd (human IL-17A/A homodimer [6])?
**A.** 3 pM

**Q.** Does B1 bind (mouse TNF)?
**A.** no binding (tested: at concentrations up to 500 nM of rTNF)

**Q.** Does B1 bind (rat TNF)?
**A.** no binding (tested: at concentrations up to 500 nM of rTNF)

**Q.** Does B1 bind (rabbit TNF)?
**A.** no binding (tested: at concentrations up to 500 nM of rTNF)

**Q.** What about the koff (human TNF-α [7]) of the same binder?
**A.** 1.6e-05 s⁻¹
